Data published in patent publication US20240393292A1, “ALLERGY ANTIGEN AND EPITOPE THEREOF” (HOYU CO., LTD., priority 2019, published 2024).

System: IgE antibody in the serum of a wheat-allergic patient
Test: Immunoblotting of two-dimensional electrophoresis pattern of wheat proteins with patient serum
Format: binding, human
Settings: immunoblot of 2D electrophoresis; compared with serum of non-wheat-allergic subject
Experimental: Identification of antigens by immunoblotting was carried out by taking all the steps up to the step of “Second-dimensional SDS-PAGE” as described above in Example 1, followed by the steps of “Transfer to membrane”, “Immunoblotting” and “Analysis” as described below.
Transfer to membrane was done using the following transfer system and transfer buffer. • Transfer system: XCell SureLock Mini-Cell and XCell II Blot Module (produced by Life Technologies) • Transfer buffer: NuPAGE Transfer Buffer (×20) (produced by Life Technologies), used in a form diluted […] with milliQ water. […]
The immunoblots obtained with the serum from the wheat-allergic patient were compared with those obtained with the control serum from the non-wheat-allergic subject. For protein present in wheat, in immunoblotting using the serum from the wheat-allergic patient, 16 spots were detected (FIG. 2), which are different from the spots detected when the serum of the non-wheat-allergic subject was used and different from those of the known wheat allergen proteins. […]

Molecule	specific binding of IgE antibody in serum of wheat-allergic patient to protein spot
Globulin 3 (protein, listed as Triticum aestivum, posttranslational modification, same protein as spot 12, differing posttranslational modification) MATRARVTIPLLFLLGTSLLFAAAVSASHDEEEDRRGGRSLQQCVQRCQQDRPRYSHARCVQECRDDQQQHGRHEQEEQGRGHGRHGEGEREEEQGRGRGRHGQGEREEEQGRGRGRRGEGERDEEHGDGRRPYVFGPRSFRRIIRSDHGFVKALRPFDEVSRLLRGIRNYRVAIMEVNPRAFVVPGLTDADGVGYVAQGEGVLTVIENGEKRSYTVRQGDVIVAPAGSIMHLANTDGRRKLVIAKILHTISVPGKFQYFSAKPLLASLSKRVLTAALKTSDERLGSLLGSRQGKEEEEKSISIVRASEEQLRELRRQASEGDQGHHWPLPPFRGDSRDTFNLLEQRPKIANRHGRLYEADARSFHALAQHDVRVAVANITPGSMTAPYLNTQSFKLAVVLEGEGEVEIVCPHLGRDSERREQEHGKGRWRSEEEEDDRRQQRRRGSGSESEEEQDQQRYETVRARVSRGSAFVVPPGHPVVEIASSRGSSNLQVVCFEINAERNERVWLAGRNNVIAKLDDPAQELTFGRPAREVQEVFRAKDQQDEGFVAGPEQQQEHERGDRRRGDRGRGDEAVEAFLRMATAAL	binding to IgE antibodies was confirmed
Gamma-gliadin (protein, listed as Triticum aestivum, posttranslational modification, same protein as spot 16, differing posttranslational modification) MKIFMVFALLVASTTITTATAQLDPRIHDQERPQQSFLQQQPLIQQQPYPPQEPQQPLFPQKEPQQPFPLQQPQYQQQQPYPQQPLPQEQLPQQHLFPQQPPQQQFPQQMPLPHQQQTFPQQQQQQQQQEQLPQQLPQFPQQQPFSQYQQPLTQQPYSQEQPLPQQQPSVEEKQQLNLCKEFLLQQCNPEEKLSLLQSVIPFLRPKTSQQNSCQLKRLQCCRQLAHISEPSRCPAIHNIVHAIVMQQQHVDRGFGQPQPQQLGQEMPMQPQHQLGQHSILPQQLAQYKLVRLLVIQTLPMLCNVHVPSDCYTITAPFGSMTAYNGGQ	binding to IgE antibodies was confirmed
